We go through two substances from US20040120923A1.

Experiment [1] addresses IL-18 (human) (UniProt Q14116). As to the kind of experiment: cell-based or functional assay.
Experiment [2] has as its target IL-18BP (human) (UniProt O95998). As to the kind of experiment: cell-based or functional assay.

IL-18BP (human), sequence (O95998 31-194): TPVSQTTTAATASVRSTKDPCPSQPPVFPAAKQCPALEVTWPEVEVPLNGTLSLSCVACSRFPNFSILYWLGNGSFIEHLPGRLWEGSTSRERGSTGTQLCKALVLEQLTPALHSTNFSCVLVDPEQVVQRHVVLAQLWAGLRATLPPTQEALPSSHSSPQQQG
IL-18 (human), sequence (Q14116 37-193 limits assumed): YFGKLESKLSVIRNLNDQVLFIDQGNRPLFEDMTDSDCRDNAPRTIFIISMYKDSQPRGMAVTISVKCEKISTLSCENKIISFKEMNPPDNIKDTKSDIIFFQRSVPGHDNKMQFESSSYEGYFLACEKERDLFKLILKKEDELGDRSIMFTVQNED

Consider “IL-18BP (from UniProt O95998 31-194) (receptor)”, for which, in experiment [1], the activity of IL-18 (IFNγ release by NKO cells, % of IL-18 25 ng/ml plus IL-12 without IL-18BP or IL-1F7b) at 3.12 ng/ml of IL-18BP, without IL-1F7b was found to be 59% and the activity of IL-18 (IFNγ release by NKO cells, % of IL-18 25 ng/ml plus IL-12 without IL-18BP or IL-1F7b) at 6.25 ng/ml of IL-18BP, without IL-1F7b amounted to 76%.

In the case of “mature IL-1F7b (N-terminus E21) (from UniProt Q9NZH6 21-218) (ligand)”, in experiment [2], the activity of IL-18 (IFNγ release by NKO cells, %) at 3.12 ng/ml of IL-18BP with mature IL-1F7b 250 ng/ml is 40%; the activity of IL-18 (IFNγ release by NKO cells, %) at 6.25 ng/ml of IL-18BP with mature IL-1F7b 250 ng/ml turned out to be 55%; the further decrease in activity of IL-18 at 3.12 ng/ml of IL-18BP with mature IL-1F7b amounted to 19%; the further decrease in activity of IL-18 at 6.25 ng/ml of IL-18BP with mature IL-1F7b was found to be 21%.
